# Test results from PMC8026080, “Functional regulation of the structure-specific endonuclease FEN1 by the human cytomegalovirus protein IE1 suggests a role for the re-initiation of stalled viral replication forks” (PLoS Pathogens, 2021).
# B1: Myc-IE1 1–382 5x mut (domain or fragment, human cytomegalovirus, UniProt P13202 1-382, looked up)
# chain: MESSAKRKMDPDNPDEGPSSKVPRPETPVTKATTFLQTMLRKEVNSQLSLGDPLFPELAEESLKTFEQVTEDCNENPEKDVLAELVKQIKVRVDMVRHRIKEHMLKKYTQTEEKFTGAFNMMGGCLQNALDILDKVHEPFEEMKCIGLTMQSMYENYIVPEDKREMWMACIKELHDVSKGAANKLGGALQAKARAKKDELRRKMMYMCYRNIEFFTKNSAFPATTNGCSQAMAALQALPQCSPDEIMAYAQKIFKILDEERDKVLTHIDHIFMDILTTCVETMCAEYKVTSDACMATMYGGISLLSEFCAVLCCYVLEETSVMLAKRPLITKPEVISVMKRRIEEICMKVFAQYILGADPLRVCSPSVDDLRAIAEESDEEE
# Columns and labels:
# FLAG-FEN1 (full length) [1] = molecular target: FLAG-FEN1 (full length) (UniProt P39748)
# FLAG-FEN1 (full length) [2] = molecular target: FLAG-FEN1 (full length) (UniProt P39748 1-380); experiment: cell-based or functional assay
# Sequence of FLAG-FEN1 (full length) (UniProt P39748 1-380) (P39748 whole entry): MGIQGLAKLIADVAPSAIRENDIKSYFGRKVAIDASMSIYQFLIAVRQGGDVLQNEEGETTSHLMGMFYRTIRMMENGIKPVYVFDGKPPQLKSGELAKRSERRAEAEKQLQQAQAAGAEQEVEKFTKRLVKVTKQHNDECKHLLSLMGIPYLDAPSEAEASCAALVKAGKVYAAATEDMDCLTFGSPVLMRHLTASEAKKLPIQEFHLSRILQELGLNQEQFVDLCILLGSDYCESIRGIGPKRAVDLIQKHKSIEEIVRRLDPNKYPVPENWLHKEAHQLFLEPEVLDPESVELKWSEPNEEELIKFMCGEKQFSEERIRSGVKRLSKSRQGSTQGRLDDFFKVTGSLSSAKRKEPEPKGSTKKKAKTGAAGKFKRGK
# Sequence of FLAG-FEN1 (full length) (UniProt P39748) (P39748 whole entry): as above
Molecule,"normalized pFEN1 (Ser187)/FEN1 ratio by densitometry of Western blots, 293T cells transfected with FLAG-FEN1 and untagged IE1 wt (FEN1 alone set to 1) (FLAG-FEN1 (full length) [1])","normalized pFEN1 (Ser187)/FEN1 ratio by densitometry of Western blots, 293T cells transfected with FLAG-FEN1 and full-length IE1 5x mut (FEN1 alone set to 1) (FLAG-FEN1 (full length) [2]) [ratio]"
HCMV immediate early protein 1 (IE1) expressed in AD169-infected cells (natural protein),2.4,–
B1,–,1.5
